In PMC10786891, “Massively parallel profiling of RNA-targeting CRISPR-Cas13d” one finds Kd data, which are given here for 27 molecules.

First the molecules themselves.
B1: target 2 MT 5'PFS UAU 3'PFS CAA (mixed)
RNA 1: CACCCGUGCAAAAUUGCAGGGGUCUAAAACCUUCUCCAAAUUGUUUCAUCCU
RNA 2: GGGAAUGGAUCCACAUCUACGAAUUCUAUAGGAUGAAACAAUUUGGAGAAGCAAAGAUCGGAAGAGCACACGU
B2: target 2 MT 5'PFS GAC 3'PFS UAC (mixed)
RNA 1: CACCCGUGCAAAAUUGCAGGGGUCUAAAACCUUCUCCAAAUUGUUUCAUCCU
RNA 2: GGGAAUGGAUCCACAUCUACGAAUUCGACAGGAUGAAACAAUUUGGAGAAGUACAGAUCGGAAGAGCACACGU
B3: target 2 MT 5'PFS GGG 3'PFS CUA (mixed)
RNA 1: CACCCGUGCAAAAUUGCAGGGGUCUAAAACCUUCUCCAAAUUGUUUCAUCCU
RNA 2: GGGAAUGGAUCCACAUCUACGAAUUCGGGAGGAUGAAACAAUUUGGAGAAGCUAAGAUCGGAAGAGCACACGU
B4: target 2 MT 5'PFS AGA 3'PFS AUC (mixed)
RNA 1: CACCCGUGCAAAAUUGCAGGGGUCUAAAACCUUCUCCAAAUUGUUUCAUCCU
RNA 2: GGGAAUGGAUCCACAUCUACGAAUUCAGAAGGAUGAAACAAUUUGGAGAAGAUCAGAUCGGAAGAGCACACGU
B5: target 2 MT 5'PFS CUU 3'PFS UAG (mixed)
RNA 1: CACCCGUGCAAAAUUGCAGGGGUCUAAAACCUUCUCCAAAUUGUUUCAUCCU
RNA 2: GGGAAUGGAUCCACAUCUACGAAUUCCUUAGGAUGAAACAAUUUGGAGAAGUAGAGAUCGGAAGAGCACACGU
B6: target 2 MT 5'PFS UUA 3'PFS AUU (mixed)
RNA 1: CACCCGUGCAAAAUUGCAGGGGUCUAAAACCUUCUCCAAAUUGUUUCAUCCU
RNA 2: GGGAAUGGAUCCACAUCUACGAAUUCUUAAGGAUGAAACAAUUUGGAGAAGAUUAGAUCGGAAGAGCACACGU
B7: target 2 MT 5'PFS UUA 3'PFS AUG (mixed)
RNA 1: CACCCGUGCAAAAUUGCAGGGGUCUAAAACCUUCUCCAAAUUGUUUCAUCCU
RNA 2: GGGAAUGGAUCCACAUCUACGAAUUCUUAAGGAUGAAACAAUUUGGAGAAGAUGAGAUCGGAAGAGCACACGU
B8: target 2 MT 5'PFS UAU 3'PFS CAC (mixed)
RNA 1: CACCCGUGCAAAAUUGCAGGGGUCUAAAACCUUCUCCAAAUUGUUUCAUCCU
RNA 2: GGGAAUGGAUCCACAUCUACGAAUUCUAUAGGAUGAAACAAUUUGGAGAAGCACAGAUCGGAAGAGCACACGU
B9: target 2 MT 5'PFS CUU 3'PFS UAC (mixed)
RNA 1: CACCCGUGCAAAAUUGCAGGGGUCUAAAACCUUCUCCAAAUUGUUUCAUCCU
RNA 2: GGGAAUGGAUCCACAUCUACGAAUUCCUUAGGAUGAAACAAUUUGGAGAAGUACAGAUCGGAAGAGCACACGU
B10: target 2 MT 5'PFS CAU 3'PFS UCC (mixed)
RNA 1: CACCCGUGCAAAAUUGCAGGGGUCUAAAACCUUCUCCAAAUUGUUUCAUCCU
RNA 2: GGGAAUGGAUCCACAUCUACGAAUUCCAUAGGAUGAAACAAUUUGGAGAAGUCCAGAUCGGAAGAGCACACGU
B11: target 2 MT 5'PFS AGA 3'PFS AUA (mixed)
RNA 1: CACCCGUGCAAAAUUGCAGGGGUCUAAAACCUUCUCCAAAUUGUUUCAUCCU
RNA 2: GGGAAUGGAUCCACAUCUACGAAUUCAGAAGGAUGAAACAAUUUGGAGAAGAUAAGAUCGGAAGAGCACACGU
B12: target 2 MT 5'PFS CAU 3'PFS ACC (mixed)
RNA 1: CACCCGUGCAAAAUUGCAGGGGUCUAAAACCUUCUCCAAAUUGUUUCAUCCU
RNA 2: GGGAAUGGAUCCACAUCUACGAAUUCCAUAGGAUGAAACAAUUUGGAGAAGACCAGAUCGGAAGAGCACACGU
B13: target 2 MT 5'PFS CAU 3'PFS ACA (mixed)
RNA 1: CACCCGUGCAAAAUUGCAGGGGUCUAAAACCUUCUCCAAAUUGUUUCAUCCU
RNA 2: GGGAAUGGAUCCACAUCUACGAAUUCCAUAGGAUGAAACAAUUUGGAGAAGACAAGAUCGGAAGAGCACACGU
B14: target 2 MT 5'PFS UUA 3'PFS AUC (mixed)
RNA 1: CACCCGUGCAAAAUUGCAGGGGUCUAAAACCUUCUCCAAAUUGUUUCAUCCU
RNA 2: GGGAAUGGAUCCACAUCUACGAAUUCUUAAGGAUGAAACAAUUUGGAGAAGAUCAGAUCGGAAGAGCACACGU
B15: target 2 MT 5'PFS CAU 3'PFS UCG (mixed)
RNA 1: CACCCGUGCAAAAUUGCAGGGGUCUAAAACCUUCUCCAAAUUGUUUCAUCCU
RNA 2: GGGAAUGGAUCCACAUCUACGAAUUCCAUAGGAUGAAACAAUUUGGAGAAGUCGAGAUCGGAAGAGCACACGU
B16: target 2 MT 5'PFS GAC 3'PFS UAG (mixed)
RNA 1: CACCCGUGCAAAAUUGCAGGGGUCUAAAACCUUCUCCAAAUUGUUUCAUCCU
RNA 2: GGGAAUGGAUCCACAUCUACGAAUUCGACAGGAUGAAACAAUUUGGAGAAGUAGAGAUCGGAAGAGCACACGU
B17: target 2 MT 5'PFS AUC 3'PFS AAC (mixed)
RNA 1: CACCCGUGCAAAAUUGCAGGGGUCUAAAACCUUCUCCAAAUUGUUUCAUCCU
RNA 2: GGGAAUGGAUCCACAUCUACGAAUUCAUCAGGAUGAAACAAUUUGGAGAAGAACAGAUCGGAAGAGCACACGU
B18: target 2 MT 5'PFS UAU 3'PFS CAG (mixed)
RNA 1: CACCCGUGCAAAAUUGCAGGGGUCUAAAACCUUCUCCAAAUUGUUUCAUCCU
RNA 2: GGGAAUGGAUCCACAUCUACGAAUUCUAUAGGAUGAAACAAUUUGGAGAAGCAGAGAUCGGAAGAGCACACGU
B19: target 2 MT 5'PFS CAU 3'PFS UCA (mixed)
RNA 1: CACCCGUGCAAAAUUGCAGGGGUCUAAAACCUUCUCCAAAUUGUUUCAUCCU
RNA 2: GGGAAUGGAUCCACAUCUACGAAUUCCAUAGGAUGAAACAAUUUGGAGAAGUCAAGAUCGGAAGAGCACACGU
B20: target 2 MT 5'PFS GCA 3'PFS UAU (mixed)
RNA 1: CACCCGUGCAAAAUUGCAGGGGUCUAAAACCUUCUCCAAAUUGUUUCAUCCU
RNA 2: GGGAAUGGAUCCACAUCUACGAAUUCGCAAGGAUGAAACAAUUUGGAGAAGUAUAGAUCGGAAGAGCACACGU
B21: target 2 MT 5'PFS CUU 3'PFS UAA (mixed)
RNA 1: CACCCGUGCAAAAUUGCAGGGGUCUAAAACCUUCUCCAAAUUGUUUCAUCCU
RNA 2: GGGAAUGGAUCCACAUCUACGAAUUCCUUAGGAUGAAACAAUUUGGAGAAGUAAAGAUCGGAAGAGCACACGU
B22: target 2 MT 5'PFS UUA 3'PFS AUA (mixed)
RNA 1: CACCCGUGCAAAAUUGCAGGGGUCUAAAACCUUCUCCAAAUUGUUUCAUCCU
RNA 2: GGGAAUGGAUCCACAUCUACGAAUUCUUAAGGAUGAAACAAUUUGGAGAAGAUAAGAUCGGAAGAGCACACGU
B23: target 2 MT 5'PFS GAC 3'PFS UAA (mixed)
RNA 1: CACCCGUGCAAAAUUGCAGGGGUCUAAAACCUUCUCCAAAUUGUUUCAUCCU
RNA 2: GGGAAUGGAUCCACAUCUACGAAUUCGACAGGAUGAAACAAUUUGGAGAAGUAAAGAUCGGAAGAGCACACGU
B24: target 2 MT 5'PFS GGG 3'PFS CUU (mixed)
RNA 1: CACCCGUGCAAAAUUGCAGGGGUCUAAAACCUUCUCCAAAUUGUUUCAUCCU
RNA 2: GGGAAUGGAUCCACAUCUACGAAUUCGGGAGGAUGAAACAAUUUGGAGAAGCUUAGAUCGGAAGAGCACACGU
B25: target 2 MT 5'PFS AGA 3'PFS AUG (mixed)
RNA 1: CACCCGUGCAAAAUUGCAGGGGUCUAAAACCUUCUCCAAAUUGUUUCAUCCU
RNA 2: GGGAAUGGAUCCACAUCUACGAAUUCAGAAGGAUGAAACAAUUUGGAGAAGAUGAGAUCGGAAGAGCACACGU
B26: target 1 insU 3' of 22,insG 3' of 14 (mixed)
RNA 1: CACCCGUGCAAAAAUGCAGGGGUCUAAAACUGAGCGGAUAACCUCUCUAUGG
RNA 2: GGGAAUGGAUCCACAUCUACGAAUUCGUACUCAUAGAGAGGGUUAUCCGCUCACCGAGAUCGGAAGAGCACACGU
B27: target 1 G5C,A9U (mixed)
RNA 1: CACCCGUGCAAAAAUGCAGGGGUCUAAAACUGAGCGGAUAACCUCUCUAUGG
RNA 2: GGGAAUGGAUCCACAUCUACGAAUUCGUACCAUAGAGAGGUUUUCCCCUCACCGAGAUCGGAAGAGCACACGU

The target in this data set is T1, EsCas13d, nuclease-dead (Eubacterium siraeum, UniProt B0MS50, R295A;H300A;R849A;H854A).
T1 sequence: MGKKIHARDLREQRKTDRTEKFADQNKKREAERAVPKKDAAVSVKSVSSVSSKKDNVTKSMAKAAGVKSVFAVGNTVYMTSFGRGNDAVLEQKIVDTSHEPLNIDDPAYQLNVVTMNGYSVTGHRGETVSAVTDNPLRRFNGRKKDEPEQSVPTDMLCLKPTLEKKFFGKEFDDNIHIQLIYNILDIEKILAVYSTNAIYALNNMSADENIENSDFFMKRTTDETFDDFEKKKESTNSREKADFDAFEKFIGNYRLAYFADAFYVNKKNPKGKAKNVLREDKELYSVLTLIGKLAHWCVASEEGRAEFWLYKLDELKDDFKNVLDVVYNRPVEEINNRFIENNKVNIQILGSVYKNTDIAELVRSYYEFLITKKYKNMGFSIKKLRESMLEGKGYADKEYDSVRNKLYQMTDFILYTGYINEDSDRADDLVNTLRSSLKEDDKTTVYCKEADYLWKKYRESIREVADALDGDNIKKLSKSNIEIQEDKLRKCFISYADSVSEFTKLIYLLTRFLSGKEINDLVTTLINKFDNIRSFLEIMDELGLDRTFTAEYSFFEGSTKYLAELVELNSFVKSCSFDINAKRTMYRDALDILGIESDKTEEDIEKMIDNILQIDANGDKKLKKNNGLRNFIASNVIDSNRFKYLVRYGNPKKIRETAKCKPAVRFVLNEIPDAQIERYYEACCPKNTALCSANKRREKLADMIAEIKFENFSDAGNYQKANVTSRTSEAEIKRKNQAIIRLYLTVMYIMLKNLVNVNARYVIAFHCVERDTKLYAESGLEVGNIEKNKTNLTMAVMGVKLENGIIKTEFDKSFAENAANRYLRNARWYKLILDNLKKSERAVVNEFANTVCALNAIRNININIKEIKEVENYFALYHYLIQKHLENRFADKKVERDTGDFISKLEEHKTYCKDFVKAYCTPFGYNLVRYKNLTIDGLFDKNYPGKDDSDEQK
The data set can be described thus: crRNA (strand 1, pre-loaded); Mg2+; 40 mM Tris-HCl pH 7.5, 150 mM NaCl, 6 mM MgCl2, 1 mM DTT, 0.1% Tween-20, 0.2 mg/ml BSA; 25 C; 10 min per concentration, then washed. Particulars: tags: His6-TwinStrep-SUMO cleaved; N-terminal SNAP kept (SNAP-Surface 488); label: 3' end held by stalled T7 RNA polymerase.
In general, Kd refers to a measure of binding affinity in units of concentration. A higher Kd goes with lower affinity. The molecule B1 had a Kd of 14.2 ± 1.5 nM.
The result for B2 reads 27 ± 8 nM; that for B3, 10.9 ± 1.9 nM; that for B4, 9.6 ± 2.3 nM.
The result for B5 reads 4.3 ± 0.8 nM; that for B6, 18.5 ± 1.4 nM; that for B7, 50 ± 13 nM.
For B8 the value was 47 ± 9 nM; for B9, 4.9 ± 0.6 nM.
As for B10, the dissociation constant (Kd) stood at 8.1 ± 0.7 nM.
For B11, the Kd was approximately 5.7 nM.
B12: the Kd was 5.9 ± 0.7 nM.
Molecule B13 displayed a Kd of 6 ± 1.2 nM.
For B14, the Kd is 31 ± 5 nM.
The result for B15 reads 3.8 ± 0.4 nM; that for B16, 7.5 ± 1 nM; that for B17, 25 ± 11 nM.
The result for B18 reads 34 ± 7 nM; that for B19, 6.4 ± 1.5 nM.
For B20 the value was 10.7 ± 1.5 nM.
The molecule B21 showed a Kd of 3 ± 0.32 nM.
For B22 the value was 27 ± 6 nM; for B23, 9.5 ± 1.8 nM.
For B24 the value was 14.2 ± 1.4 nM; for B25, 8.2 ± 1.3 nM; for B26, 68 ± 22 nM.
The result for B27 reads 11.8 ± 0.6 nM.
